As a reminder, the Kd is the free concentration of one partner at which half of the binding sites on the other are occupied at equilibrium, for simple one-to-one binding.

This experiment concerns the target T1, MED25 ACID (Homo sapiens, UniProt Q71SY5).
T1 chain: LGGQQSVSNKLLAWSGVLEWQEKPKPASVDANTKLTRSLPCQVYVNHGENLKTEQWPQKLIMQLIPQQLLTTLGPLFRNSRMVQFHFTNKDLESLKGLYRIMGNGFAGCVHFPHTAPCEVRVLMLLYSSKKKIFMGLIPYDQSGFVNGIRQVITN
Nature of the experiment: BLI.

B1: NS1 (protein)
chain: MGSNSLSMIKVRLQNLFDNDEVALLKITCYTDKLIHLTNALAKAVIHTIKLNGIVFVHVITSSDICPNNNIVVKSNFTTMPVLQNGGYIWEMMELTHCSQPNGLLDDNCEIKFSKKLSDSTMTNYMNQLSELLGFDLNP
As to B1, the Kd amounted to 16 nM.
